From the supplement of paper PMC9112550, “Optimization of the antimicrobial peptide Bac7 by deep mutational scanning” (BMC Biology, 2022)

Tested on: Escherichia coli TOP10
Test: shrunken log2 fold change of peptide-encoding DNA abundance (4.5 h post-induction vs induction); higher = less antimicrobial activity (less host growth inhibition)
Settings: time post-induction: 4.5 h; library: site-saturation at positions 5, 18, 19, 20
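Further: peptides expressed intracellularly from a pBAD plasmid library in pooled LB shake-flask culture, induced with 0.3% L-arabinose, DNA abundance read by NGS, three biological replicates, DESeq2 with apeglm shrinkage.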

| Sequence | shrunken log2 fold change |
| --- | --- |
| RRIRMRPPRLPRPRPRPIMTPRP | -0.104 |
| RRIRVRPPRLPRPRPRPKEQPRP | -0.0164 |
| RRIRMRPPRLPRPRPRPYIKPRP | -0.86 |
| RRIRYRPPRLPRPRPRPFAHPRP | -0.00804 |
| RRIRSRPPRLPRPRPRPILMPRP | -0.172 |
| RRIRKRPPRLPRPRPRPDNEPRP | 0.665 |
| RRIRARPPRLPRPRPRPVFYPRP | -0.0366 |
| RRIRYRPPRLPRPRPRPYMIPRP | -0.0298 |
| RRIRRRPPRLPRPRPRPMRSPRP | 0.579 |
| RRIRDRPPRLPRPRPRPQIHPRP | -0.145 |
| RRIRSRPPRLPRPRPRPDKGPRP | -0.108 |
| RRIRVRPPRLPRPRPRPKMVPRP | -0.109 |
| RRIRMRPPRLPRPRPRPAQFPRP | -0.107 |
| RRIRHRPPRLPRPRPRPKWHPRP | -0.108 |
| RRIRTRPPRLPRPRPRPFVGPRP | -0.035 |
| RRIRPRPPRLPRPRPRPCGRPRP | 0.302 |
| RRIRPRPPRLPRPRPRPQPDPRP | -0.0815 |
| RRIRIRPPRLPRPRPRPHPKPRP | -0.258 |
| RRIRYRPPRLPRPRPRPKLFPRP | -0.0593 |
| RRIRQRPPRLPRPRPRPHLEPRP | -0.15 |
| RRIRTRPPRLPRPRPRPVQEPRP | 0.207 |
| RRIRERPPRLPRPRPRPCAIPRP | -0.15 |
| RRIRSRPPRLPRPRPRPDACPRP | 0.322 |

| Sequence | shrunken log2 fold change |
| --- | --- |
| RRIRFRPPRLPRPRPRPETGPRP | 0.0907 |
| RRIRIRPPRLPRPRPRPYAKPRP | -0.207 |
| RRIRSRPPRLPRPRPRPTWFPRP | -0.216 |
| RRIRIRPPRLPRPRPRPRTDPRP | -0.158 |
| RRIRMRPPRLPRPRPRPHIAPRP | 0.13 |
| RRIRVRPPRLPRPRPRPNSNPRP | -0.74 |
| RRIRHRPPRLPRPRPRPGGTPRP | 0.0131 |
| RRIRVRPPRLPRPRPRPPSSPRP | 0.275 |
| RRIRWRPPRLPRPRPRPMVWPRP | 0.025 |
| RRIRDRPPRLPRPRPRPLDKPRP | -0.0615 |
| RRIRSRPPRLPRPRPRPADRPRP | 0.308 |
| RRIRERPPRLPRPRPRPEDPPRP | -0.134 |
| RRIRARPPRLPRPRPRPDRKPRP | 0.0521 |
| RRIRLRPPRLPRPRPRPCYNPRP | -0.206 |
| RRIRPRPPRLPRPRPRPQEHPRP | -0.225 |
| RRIRMRPPRLPRPRPRPPWHPRP | 0.438 |
| RRIRMRPPRLPRPRPRPRFKPRP | 0.498 |
| RRIRMRPPRLPRPRPRPTDLPRP | 0.225 |
| RRIRSRPPRLPRPRPRPLMGPRP | -0.271 |
| RRIRQRPPRLPRPRPRPMWNPRP | -0.123 |
| RRIRCRPPRLPRPRPRPEIMPRP | -0.0581 |
| RRIRQRPPRLPRPRPRPTNEPRP | -0.395 |
| RRIRRRPPRLPRPRPRPCAYPRP | 0.0425 |

| Sequence | shrunken log2 fold change |
| --- | --- |
| RRIRNRPPRLPRPRPRPICWPRP | -0.0674 |
| RRIRSRPPRLPRPRPRPLIAPRP | 0.0475 |
| RRIRIRPPRLPRPRPRPGDVPRP | -0.227 |
| RRIRWRPPRLPRPRPRPSFRPRP | -0.261 |
| RRIRFRPPRLPRPRPRPRNEPRP | -0.0379 |
| RRIRFRPPRLPRPRPRPAVGPRP | 0.591 |
| RRIRIRPPRLPRPRPRPQGLPRP | 0.0413 |
| RRIRFRPPRLPRPRPRPLRSPRP | 0.259 |
| RRIRMRPPRLPRPRPRPWDWPRP | 0.794 |
| RRIRPRPPRLPRPRPRPIFAPRP | 0.33 |
| RRIRARPPRLPRPRPRPDMGPRP | -0.0014 |
| RRIRIRPPRLPRPRPRPFRVPRP | -0.369 |
| RRIRKRPPRLPRPRPRPCYWPRP | 0.0448 |
| RRIRPRPPRLPRPRPRPRFAPRP | 0.323 |
| RRIRDRPPRLPRPRPRPRRHPRP | 0.172 |
| RRIRWRPPRLPRPRPRPSVNPRP | -0.0581 |
| RRIRPRPPRLPRPRPRPGGWPRP | 0.724 |
| RRIRMRPPRLPRPRPRPHQTPRP | 0.184 |
| RRIRYRPPRLPRPRPRPNHWPRP | -0.4 |
| RRIRSRPPRLPRPRPRPNQWPRP | 0.0342 |
| RRIRFRPPRLPRPRPRPCYNPRP | -0.255 |
| RRIRRRPPRLPRPRPRPMESPRP | -0.00992 |
| RRIRYRPPRLPRPRPRPWWSPRP | -0.0117 |

| Sequence | shrunken log2 fold change |
| --- | --- |
| RRIRLRPPRLPRPRPRPTAKPRP | 0.134 |
| RRIRQRPPRLPRPRPRPAPFPRP | 0.613 |
| RRIRPRPPRLPRPRPRPPQSPRP | 0.621 |
| RRIRVRPPRLPRPRPRPERFPRP | -0.023 |
| RRIRGRPPRLPRPRPRPKLMPRP | 1 |
| RRIRMRPPRLPRPRPRPKCLPRP | 0.148 |
| RRIRIRPPRLPRPRPRPPNEPRP | -0.365 |
| RRIRMRPPRLPRPRPRPLAQPRP | 0.634 |
| RRIRDRPPRLPRPRPRPRCQPRP | -0.128 |
| RRIRKRPPRLPRPRPRPRLIPRP | 0.234 |
| RRIRIRPPRLPRPRPRPIRFPRP | -1.35 |
| RRIRWRPPRLPRPRPRPDEWPRP | 0.253 |
| RRIRTRPPRLPRPRPRPMSEPRP | -0.00136 |
| RRIRHRPPRLPRPRPRPFEKPRP | -0.0199 |
| RRIRIRPPRLPRPRPRPCDGPRP | -0.00133 |
| RRIRMRPPRLPRPRPRPFQVPRP | 0.0921 |
| RRIRTRPPRLPRPRPRPWKAPRP | 0.0456 |
| RRIRHRPPRLPRPRPRPFYFPRP | -0.355 |
| RRIRNRPPRLPRPRPRPIYFPRP | -0.767 |
| RRIRPRPPRLPRPRPRPYAEPRP | -0.377 |
| RRIRCRPPRLPRPRPRPYWNPRP | -0.629 |
| RRIRRRPPRLPRPRPRPGVGPRP | 0.59 |
